Assay results from patent publication US20250115669A1, “FGFR1/KLB Targeting Agonistic Antigen-Binding Proteins and Conjugates Thereof with GLP-1R Agonistic Peptides” (SANOFI, priority 2020, published 2025).

T1: human beta-Klotho (Homo sapiens, UniProt Q86Z14)
T1 sequence (Q86Z14 1-1044): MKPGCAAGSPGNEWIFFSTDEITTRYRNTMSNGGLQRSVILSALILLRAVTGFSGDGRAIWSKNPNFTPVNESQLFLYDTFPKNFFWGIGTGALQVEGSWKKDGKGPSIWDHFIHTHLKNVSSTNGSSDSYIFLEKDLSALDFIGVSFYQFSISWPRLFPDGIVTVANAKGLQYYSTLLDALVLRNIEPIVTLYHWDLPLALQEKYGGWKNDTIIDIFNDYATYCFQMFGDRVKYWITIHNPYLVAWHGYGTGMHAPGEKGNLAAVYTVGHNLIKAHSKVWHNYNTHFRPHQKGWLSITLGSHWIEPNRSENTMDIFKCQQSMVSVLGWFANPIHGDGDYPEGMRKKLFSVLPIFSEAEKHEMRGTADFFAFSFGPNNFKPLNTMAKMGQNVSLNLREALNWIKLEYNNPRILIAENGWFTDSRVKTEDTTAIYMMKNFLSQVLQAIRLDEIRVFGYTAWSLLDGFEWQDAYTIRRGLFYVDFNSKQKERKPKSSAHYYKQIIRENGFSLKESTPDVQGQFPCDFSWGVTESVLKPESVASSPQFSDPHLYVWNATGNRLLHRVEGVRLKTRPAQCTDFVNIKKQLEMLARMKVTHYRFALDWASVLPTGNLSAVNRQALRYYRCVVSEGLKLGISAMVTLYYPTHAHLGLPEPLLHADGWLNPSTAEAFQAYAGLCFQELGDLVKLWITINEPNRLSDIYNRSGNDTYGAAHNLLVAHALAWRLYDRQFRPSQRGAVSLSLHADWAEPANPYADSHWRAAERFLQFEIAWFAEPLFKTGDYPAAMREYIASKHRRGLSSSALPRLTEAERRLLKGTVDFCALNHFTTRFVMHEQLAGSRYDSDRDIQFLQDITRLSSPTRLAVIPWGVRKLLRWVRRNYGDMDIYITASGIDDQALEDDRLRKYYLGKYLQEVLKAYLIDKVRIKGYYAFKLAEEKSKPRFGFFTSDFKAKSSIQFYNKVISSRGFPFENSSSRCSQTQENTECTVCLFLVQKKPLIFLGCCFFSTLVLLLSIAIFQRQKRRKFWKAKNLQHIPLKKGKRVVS


What follows are molecules tested against T1, human beta-Klotho (assay: SPR off-rate screening of antibody mutants (human beta-Klotho captured by anti-His antibody)). Details: mean, n=3.
Type: binding
Method in brief: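 Anti-His capture on amine-coupled CM5 surface; analyte (mutant Ab) 50 nmol/L; assoc 240 sec / dissoc 300 sec; regeneration per capture kit; kd by single-exponential fit.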

koff human KLB | Molecule
invalid fit | Ab0350: IgG4 PE; 16H7 VL (N25S, D49E, D50E, D91A, N93S); 16H7 VH (M34V, I83T, D109E) (antibody) VH: QVTLKESGPVLVKPTETLTLTCTVSGFSLNNARVGVSWIRQPPGKALEWLAHIFSNDEKSYSTSLKSRLTISKDTSKSQVVLTMTNMDPVDTATYYCARSVVTGGYYYEGMDVWGQGTTVTVSS light: SYVLTQPPSVSVAPGQTARITCGGSNIGSESVHWYQQKPGQAPVLVVYEESDRPSGIPERFSGSNSGNTATLTISRVEAGDEADYYCQVWAGSSDHVVFGGGTKLTVLGQPKANPTVTLFPPSSEELQANKATLVCLISDFYPGAVTVAWKADGSPVKAGVETTKPSKQSNNKYAASSYLSLTPEQWKSHRSYSCQVTHEGSTVEKTVAPTECS
0.00195 s⁻¹ | Ab0355: IgG4 PE; 16H7 VL (N25S, D49E, D50Y, D91E, N93S); 16H7 VH (M34V, I83T, D109E) (antibody) VH: QVTLKESGPVLVKPTETLTLTCTVSGFSLNNARVGVSWIRQPPGKALEWLAHIFSNDEKSYSTSLKSRLTISKDTSKSQVVLTMTNMDPVDTATYYCARSVVTGGYYYEGMDVWGQGTTVTVSS light: SYVLTQPPSVSVAPGQTARITCGGSNIGSESVHWYQQKPGQAPVLVVYEYSDRPSGIPERFSGSNSGNTATLTISRVEAGDEADYYCQVWEGSSDHVVFGGGTKLTVLGQPKANPTVTLFPPSSEELQANKATLVCLISDFYPGAVTVAWKADGSPVKAGVETTKPSKQSNNKYAASSYLSLTPEQWKSHRSYSCQVTHEGSTVEKTVAPTECS
0.0003799 s⁻¹ | Ab0353: IgG4 PE; 16H7 VL (N25S, D49E, D50E, D91E, N93A); 16H7 VH (M34V, I83T, D109E) (antibody) VH: QVTLKESGPVLVKPTETLTLTCTVSGFSLNNARVGVSWIRQPPGKALEWLAHIFSNDEKSYSTSLKSRLTISKDTSKSQVVLTMTNMDPVDTATYYCARSVVTGGYYYEGMDVWGQGTTVTVSS light: SYVLTQPPSVSVAPGQTARITCGGSNIGSESVHWYQQKPGQAPVLVVYEESDRPSGIPERFSGSNSGNTATLTISRVEAGDEADYYCQVWEGASDHVVFGGGTKLTVLGQPKANPTVTLFPPSSEELQANKATLVCLISDFYPGAVTVAWKADGSPVKAGVETTKPSKQSNNKYAASSYLSLTPEQWKSHRSYSCQVTHEGSTVEKTVAPTECS
0.0004194 s⁻¹ | Ab0352: IgG4 PE; 16H7 VL (N25S, D49E, D50E, D91E, N93S); 16H7 VH (M34V, I83T, D109E) (antibody) VH: QVTLKESGPVLVKPTETLTLTCTVSGFSLNNARVGVSWIRQPPGKALEWLAHIFSNDEKSYSTSLKSRLTISKDTSKSQVVLTMTNMDPVDTATYYCARSVVTGGYYYEGMDVWGQGTTVTVSS light: SYVLTQPPSVSVAPGQTARITCGGSNIGSESVHWYQQKPGQAPVLVVYEESDRPSGIPERFSGSNSGNTATLTISRVEAGDEADYYCQVWEGSSDHVVFGGGTKLTVLGQPKANPTVTLFPPSSEELQANKATLVCLISDFYPGAVTVAWKADGSPVKAGVETTKPSKQSNNKYAASSYLSLTPEQWKSHRSYSCQVTHEGSTVEKTVAPTECS
0.00158 s⁻¹ | Ab0354: IgG4 PE; 16H7 VL (N25S, D49E, D50E, D91H, N93S); 16H7 VH (M34V, I83T, D109E) (antibody) VH: QVTLKESGPVLVKPTETLTLTCTVSGFSLNNARVGVSWIRQPPGKALEWLAHIFSNDEKSYSTSLKSRLTISKDTSKSQVVLTMTNMDPVDTATYYCARSVVTGGYYYEGMDVWGQGTTVTVSS light: SYVLTQPPSVSVAPGQTARITCGGSNIGSESVHWYQQKPGQAPVLVVYEESDRPSGIPERFSGSNSGNTATLTISRVEAGDEADYYCQVWHGSSDHVVFGGGTKLTVLGQPKANPTVTLFPPSSEELQANKATLVCLISDFYPGAVTVAWKADGSPVKAGVETTKPSKQSNNKYAASSYLSLTPEQWKSHRSYSCQVTHEGSTVEKTVAPTECS

Further lines, the molecule ahead of its results:

Molecule | koff human KLB
Ab0344: IgG4 PE; 16H7 VL (N25S, D49A, D50A, D91E, N93S); 16H7 VH (M34V, I83T, D109E) (antibody) VH: QVTLKESGPVLVKPTETLTLTCTVSGFSLNNARVGVSWIRQPPGKALEWLAHIFSNDEKSYSTSLKSRLTISKDTSKSQVVLTMTNMDPVDTATYYCARSVVTGGYYYEGMDVWGQGTTVTVSS light: SYVLTQPPSVSVAPGQTARITCGGSNIGSESVHWYQQKPGQAPVLVVYAASDRPSGIPERFSGSNSGNTATLTISRVEAGDEADYYCQVWEGSSDHVVFGGGTKLTVLGQPKANPTVTLFPPSSEELQANKATLVCLISDFYPGAVTVAWKADGSPVKAGVETTKPSKQSNNKYAASSYLSLTPEQWKSHRSYSCQVTHEGSTVEKTVAPTECS | 0.00168 s⁻¹
Ab0347: IgG4 PE; 16H7 VL (N25S, D49A, D50S, D91A, N93S); 16H7 VH (M34V, I83T, D109E) (antibody) VH: QVTLKESGPVLVKPTETLTLTCTVSGFSLNNARVGVSWIRQPPGKALEWLAHIFSNDEKSYSTSLKSRLTISKDTSKSQVVLTMTNMDPVDTATYYCARSVVTGGYYYEGMDVWGQGTTVTVSS light: SYVLTQPPSVSVAPGQTARITCGGSNIGSESVHWYQQKPGQAPVLVVYASSDRPSGIPERFSGSNSGNTATLTISRVEAGDEADYYCQVWAGSSDHVVFGGGTKLTVLGQPKANPTVTLFPPSSEELQANKATLVCLISDFYPGAVTVAWKADGSPVKAGVETTKPSKQSNNKYAASSYLSLTPEQWKSHRSYSCQVTHEGSTVEKTVAPTECS | invalid fit
Ab0349: IgG4 PE; 16H7 VL (N25S, D49E, D50E, D91T, N93S); 16H7 VH (M34V, I83T, D109E) (antibody) VH: QVTLKESGPVLVKPTETLTLTCTVSGFSLNNARVGVSWIRQPPGKALEWLAHIFSNDEKSYSTSLKSRLTISKDTSKSQVVLTMTNMDPVDTATYYCARSVVTGGYYYEGMDVWGQGTTVTVSS light: SYVLTQPPSVSVAPGQTARITCGGSNIGSESVHWYQQKPGQAPVLVVYEESDRPSGIPERFSGSNSGNTATLTISRVEAGDEADYYCQVWTGSSDHVVFGGGTKLTVLGQPKANPTVTLFPPSSEELQANKATLVCLISDFYPGAVTVAWKADGSPVKAGVETTKPSKQSNNKYAASSYLSLTPEQWKSHRSYSCQVTHEGSTVEKTVAPTECS | invalid fit
Ab0345: IgG4 PE; 16H7 VL (N25S, D49A, D50A, D91E, N93A); 16H7 VH (M34V, I83T, D109E) (antibody) VH: QVTLKESGPVLVKPTETLTLTCTVSGFSLNNARVGVSWIRQPPGKALEWLAHIFSNDEKSYSTSLKSRLTISKDTSKSQVVLTMTNMDPVDTATYYCARSVVTGGYYYEGMDVWGQGTTVTVSS light: SYVLTQPPSVSVAPGQTARITCGGSNIGSESVHWYQQKPGQAPVLVVYAASDRPSGIPERFSGSNSGNTATLTISRVEAGDEADYYCQVWEGASDHVVFGGGTKLTVLGQPKANPTVTLFPPSSEELQANKATLVCLISDFYPGAVTVAWKADGSPVKAGVETTKPSKQSNNKYAASSYLSLTPEQWKSHRSYSCQVTHEGSTVEKTVAPTECS | 0.00188 s⁻¹
Ab0346: IgG4 PE; 16H7 VL (N25S, D49A, D50H, D91A, N93S); 16H7 VH (M34V, I83T, D109E) (antibody) VH: QVTLKESGPVLVKPTETLTLTCTVSGFSLNNARVGVSWIRQPPGKALEWLAHIFSNDEKSYSTSLKSRLTISKDTSKSQVVLTMTNMDPVDTATYYCARSVVTGGYYYEGMDVWGQGTTVTVSS light: SYVLTQPPSVSVAPGQTARITCGGSNIGSESVHWYQQKPGQAPVLVVYAHSDRPSGIPERFSGSNSGNTATLTISRVEAGDEADYYCQVWAGSSDHVVFGGGTKLTVLGQPKANPTVTLFPPSSEELQANKATLVCLISDFYPGAVTVAWKADGSPVKAGVETTKPSKQSNNKYAASSYLSLTPEQWKSHRSYSCQVTHEGSTVEKTVAPTECS | invalid fit
Ab0348: IgG4 PE; 16H7 VL (N25S, D49E, D50E, D91T, N93E); 16H7 VH (M34V, I83T, D109E) (antibody) VH: QVTLKESGPVLVKPTETLTLTCTVSGFSLNNARVGVSWIRQPPGKALEWLAHIFSNDEKSYSTSLKSRLTISKDTSKSQVVLTMTNMDPVDTATYYCARSVVTGGYYYEGMDVWGQGTTVTVSS light: SYVLTQPPSVSVAPGQTARITCGGSNIGSESVHWYQQKPGQAPVLVVYEESDRPSGIPERFSGSNSGNTATLTISRVEAGDEADYYCQVWTGESDHVVFGGGTKLTVLGQPKANPTVTLFPPSSEELQANKATLVCLISDFYPGAVTVAWKADGSPVKAGVETTKPSKQSNNKYAASSYLSLTPEQWKSHRSYSCQVTHEGSTVEKTVAPTECS | invalid fit
